Molecular target: Labeled Vip3Aa (MST) (Bacillus thuringiensis)
Experiment: MST; labeled Vip3Aa 10 nM, GST-FGFR-N titrated 0.3 nM to 10 µM; 25 mM HEPES pH 7.5, 0.05% Tween-20, 150 mM NaCl; 25 °C; Hill equation fit; three independent experiments

Substance “GST-FGFR-N (extracellular regions of Sf-FGFR, aa 27-415, with a GST tag) (domain or fragment)” has a Kd of 1430 nM.

Source: paper PMC6315849
